± gives the uncertainty stated by the source.
Test: self-splicing fitness, log relative to wild type (ln ratio); higher = more splicing; Tetrahymena group I intron in knt gene, E. coli kanamycin selection, DiMSum; sequences stand for … in CUCUCU…GGAGGGAAAAGUUAUCAGGCAUGCACCUGGUAGCUAGUCUUUAAACCAAUAGAUUGCAUCGGUUUAAAAGGCAAGACCGUCAAAUUGCGGGAAAGGGGUCAACAGCCGUUCAGUACCAAGUCUCAGGGGAAACUUUGAGAUGGCCUUGCAAAGGGUAUGGUAAUAAGCUGACGGACAUGGUCCUAACCACGCAGCCAAGUCCUAAGUCAACAGAUCUUCUGUUGAUAUGGAUGCAGUUCACAGACUAAAUGUCGGUCGGGGAAGAUGUAUUCUUCUCAUAAGAUAUAGUCGGACCUCUCCUUAAUGGGAGCUAGCGGAUGAAGUGAUGCAACACUGGAGCCGCUGGGAACUAAUUUGUAUGCGAAAGUAUAUUGAUUAGUUUUGGAGUACUCGUGGUCG
In short: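 Library with all eight P1ex-region intron nucleotides randomised, intron inside the knt kanamycin-resistance gene on pET-22b(+), in E. coli BL21(DE3). Cells grew overnight at 37°C or 30°C on LB agar with or without 25 μg/mL kanamycin (plus 100 μg/mL carbenicillin, 50 μM IPTG, 0.2% rhamnose), in six replicate transformations. Pooled colonies were amplicon-sequenced on Illumina HiSeq 2500. DiMSum fitness is the error-weighted combination of wild-type-normalised replicate fold changes, kanamycin versus none.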

Sequence	self-splicing fitness (ln) (30 °C)	self-splicing fitness (ln) (37 °C)
AUGUAGCAAUAUUACGGAUC	-1.92 ± 0.2	-1.61 ± 0.23
GUGGAGCAAUAUUACGAGUC	–	-2.24 ± 0.31
AAUUAGCAAUAUUACGAUAA	-0.869 ± 0.098	-0.069 ± 0.14
UGUCAGCAAUAUUACGACAC	-3.09 ± 0.47	–
CCAGAGCAAUAUUACGACAG	-0.807 ± 0.094	-0.408 ± 0.15
ACGGAGCAAUAUUACGUUAA	-2.65 ± 0.23	-3.13 ± 0.47
ACAAAGCAAUAUUACGUAGG	-2.88 ± 0.1	-1.55 ± 0.12
CAACAGCAAUAUUACGCUGC	-3.4 ± 0.23	-2.21 ± 0.36
UCCGAGCAAUAUUACGAAAA	–	-1.07 ± 0.37
UCUUAGCAAUAUUACGACUA	–	-2.26 ± 0.45
CGGCAGCAAUAUUACGAAUC	-4.16 ± 0.39	-2.23 ± 0.34
CAUUAGCAAUAUUACGUAAC	-3.01 ± 0.26	-2.14 ± 0.25
CCUGAGCAAUAUUACGGGCG	-2.62 ± 0.23	-2.1 ± 0.18
CAGAAGCAAUAUUACGCCCG	-0.995 ± 0.15	0.147 ± 0.16
CCGUAGCAAUAUUACGGGGC	-2.28 ± 0.24	-2.31 ± 0.34
CACGAGCAAUAUUACGUUCU	-3.56 ± 0.2	-2.02 ± 0.26
GCGCAGCAAUAUUACGUGCG	-4.36 ± 0.28	-2.7 ± 0.21
GAACAGCAAUAUUACGCCAA	-1.94 ± 0.42	-2.06 ± 0.32
UGCCAGCAAUAUUACGUUCG	-0.361 ± 0.07	0.136 ± 0.089
CCGUAGCAAUAUUACGCACC	–	-2.21 ± 0.37
UCAAAGCAAUAUUACGGGUG	-0.366 ± 0.056	0.234 ± 0.074
GACAAGCAAUAUUACGUGGC	-4.6 ± 0.32	-1.61 ± 0.11
CCCUAGCAAUAUUACGACGA	-3.12 ± 0.24	-2.61 ± 0.27
AGUUAGCAAUAUUACGAACU	-1.59 ± 0.23	-1.89 ± 0.28
UGCCAGCAAUAUUACGGAGU	-4.74 ± 0.27	-1.34 ± 0.13
GAGCAGCAAUAUUACGAUCA	-2.14 ± 0.15	-1.99 ± 0.15
CCCCAGCAAUAUUACGCCCU	-4.24 ± 0.39	-1.98 ± 0.28

Sequence	self-splicing fitness (ln) (30 °C)	self-splicing fitness (ln) (37 °C)
CGACAGCAAUAUUACGGGGA	-3.22 ± 0.15	-2.35 ± 0.11
GGAAAGCAAUAUUACGUCCC	–	-2.61 ± 0.33
CGCUAGCAAUAUUACGAGGU	-3.83 ± 0.31	-2.58 ± 0.23
ACUAAGCAAUAUUACGCAAA	-2.51 ± 0.24	-1.77 ± 0.24
UUACAGCAAUAUUACGGUCC	-1.95 ± 0.16	-1.03 ± 0.16
AGCCAGCAAUAUUACGGUCC	-1.12 ± 0.081	-0.461 ± 0.12
GUCAAGCAAUAUUACGAUCU	-2.31 ± 0.067	-1.04 ± 0.068
UAACAGCAAUAUUACGAGUC	-3.74 ± 0.23	-2.05 ± 0.22
GAGAAGCAAUAUUACGCUUG	-2.34 ± 0.1	-0.658 ± 0.13
GUUAAGCAAUAUUACGGCUA	0.289 ± 0.099	0.176 ± 0.1
CCGAAGCAAUAUUACGGAAG	-3.86 ± 0.24	-1.31 ± 0.15
CAAGAGCAAUAUUACGGCGG	-0.86 ± 0.069	-0.283 ± 0.094
UUAAAGCAAUAUUACGAAUA	-1.71 ± 0.088	-0.164 ± 0.12
CCUUAGCAAUAUUACGUCCU	-2.36 ± 0.17	-2.65 ± 0.38
UGCCAGCAAUAUUACGGUUU	-0.471 ± 0.075	-0.237 ± 0.096
CGUGAGCAAUAUUACGCGGA	–	-1.62 ± 0.39
AUGCAGCAAUAUUACGACGA	-0.531 ± 0.081	-0.65 ± 0.089
GGCAAGCAAUAUUACGAGAC	-0.681 ± 0.14	-1.2 ± 0.23
GGACAGCAAUAUUACGAGGG	-3.16 ± 0.14	-2.28 ± 0.15
AGUUAGCAAUAUUACGAAAG	-4.09 ± 0.21	-2.82 ± 0.24
UCGUAGCAAUAUUACGACUA	-1.41 ± 0.19	-0.0995 ± 0.15
UUCCAGCAAUAUUACGGAUA	-0.966 ± 0.092	-0.56 ± 0.098
CGAUAGCAAUAUUACGAGUC	-2.74 ± 0.19	-3.73 ± 0.39
CAAGAGCAAUAUUACGUAUC	-3.78 ± 0.17	-2.67 ± 0.2
UCGGAGCAAUAUUACGGUAG	-3.8 ± 0.35	-2.8 ± 0.28
CUUCAGCAAUAUUACGCACC	-3.9 ± 0.47	-2.61 ± 0.35
AAGCAGCAAUAUUACGAACU	-0.292 ± 0.07	-1 ± 0.069

Sequence	self-splicing fitness (ln) (30 °C)	self-splicing fitness (ln) (37 °C)
UGAAAGCAAUAUUACGUUCG	-1.51 ± 0.094	-0.54 ± 0.11
UGGUAGCAAUAUUACGCAGG	-2.77 ± 0.3	-2.82 ± 0.48
ACUAAGCAAUAUUACGAGUG	-1.42 ± 0.08	-0.758 ± 0.11
ACGGAGCAAUAUUACGAUAC	-2.35 ± 0.18	-1.98 ± 0.22
GGCCAGCAAUAUUACGAGCA	-0.969 ± 0.077	-0.145 ± 0.084
AAAGAGCAAUAUUACGCGGU	-3.49 ± 0.18	-1.49 ± 0.16
AACUAGCAAUAUUACGACUU	-0.0929 ± 0.069	0.236 ± 0.09
AGUGAGCAAUAUUACGGGGG	-3.05 ± 0.31	-2.87 ± 0.3
CAUAAGCAAUAUUACGUCAA	-3.33 ± 0.27	-2.61 ± 0.3
CUUCAGCAAUAUUACGCCGU	-3.17 ± 0.35	-2.05 ± 0.29
UGGCAGCAAUAUUACGAGGA	-2.34 ± 0.34	-1.75 ± 0.26
AGGUAGCAAUAUUACGGUCU	-0.498 ± 0.013	-0.107 ± 0.033
CAGAAGCAAUAUUACGAAGC	-2.87 ± 0.31	–
GGAUAGCAAUAUUACGUAGU	-3.21 ± 0.15	-1.67 ± 0.15
CGAAAGCAAUAUUACGUUUA	-1.99 ± 0.13	-1.83 ± 0.14
CCAAAGCAAUAUUACGAAGA	-3.61 ± 0.27	-2.2 ± 0.22
ACUCAGCAAUAUUACGAAUC	–	-1.05 ± 0.32
GGUAAGCAAUAUUACGACAC	-0.00191 ± 0.13	0.285 ± 0.19
AAACAGCAAUAUUACGCCUU	-1.66 ± 0.093	-0.238 ± 0.1
AUGCAGCAAUAUUACGUUUU	-2.8 ± 0.1	-1.65 ± 0.099
GACGAGCAAUAUUACGACCC	-0.0053 ± 0.24	-0.307 ± 0.22
UGAGAGCAAUAUUACGUGGA	-3.18 ± 0.28	-2.95 ± 0.47
GGUAAGCAAUAUUACGAGAC	-1.71 ± 0.39	-0.652 ± 0.27
UAUAAGCAAUAUUACGGCGC	-1.25 ± 0.11	-1.35 ± 0.14
GUGAAGCAAUAUUACGGGAC	-1.8 ± 0.12	-0.623 ± 0.13

Reference: the supplement of paper PMC7877785
